Publication PMC8359418, “Genome‐wide analysis of in vivo CcpA binding with and without its key co‐factor HPr in the major human pathogen group A Streptococcus” (Molecular Microbiology, 2020)

Assays:
[1] = target: recombinant wild type GAS CcpA (catabolite control protein A) (group A Streptococcus (Streptococcus pyogenes)); experiment: SPR; CcpA (3,700 RU) or CcpAV301A (4,200 RU) immobilised on CM5 by amine coupling; HPr or HPrSer46~P injected, 2-fold dilutions 1.25 to 80 uM; PBS pH 7.4, 25°C; steady-state responses fitted to a one-site binding model; BIAcore T200
[2] = target: recombinant GAS CcpA with V301A change (group A Streptococcus (Streptococcus pyogenes)); experiment: as above
[3] = target: T1, CcpA endogenous in GAS strain MGAS2221 (Streptococcus pyogenes (endogenous in …, UniProt Q9A118 1-333)); experiment: co-IP; GAS strains grown to mid-exponential phase in THY, cross-linked with EGS and formaldehyde, sonicated; precipitated with polyclonal anti-CcpA antibody, Western blot with anti-HPr antibody, quantified (Odyssey); settings: partners not purified
T1 construct: Catabolite control protein A (CcpA) of Streptococcus pyogenes serotype emm1 strain MGAS2221 (gene content identical to MGAS5005); also called wild type CcpA; source: endogenous, lysate of cross-linked MGAS2221 cells

Row | Molecule | Kd [1] | Kd [2] | fold more HPr co-immunoprecipitated than from strain 2221-CcpA-V301A [3]
1 | recombinant GAS HPr (histidine-containing protein), unphosphorylated (natural protein) | 188 µM | – | –
2 | recombinant GAS HPr phosphorylated at Ser46 (natural protein) | 5.8 µM | 153 µM | –
3 | HPr endogenous in GAS strains MGAS2221 and 2221-CcpA-V301A (natural protein, Phosphocarrier protein HPr (ptsH) of Streptococcus pyogenes serotype emm1 strain MGAS2221 and its isoallelic derivative; Detected with an anti-HPr antibody; the phosphorylation state of the co-precipitated HPr was not determined (by Phos-tag gels most cellular HPr was unphosphorylated); also called HPr~P; source: endogenous, lysates of cross-linked MGAS2221 and 2221-CcpA-V301A cells) MASKDFHIVAETGIHARPATLLVQTASKFASDITLDYKGKAVNLKSIMGVMSLGVGQGADVTISAEGADAEDAIAAIEETMTKEGLA | – | – | 10 fold
